Patent publication EP4613780A1 (Adlai Nortye Biopharma Co., Ltd., dated 2025)

Legend:
[1] = biological target: T1, human PD-L1 protein (Acro, PD1-H5258) (human, UniProt Q9NZQ7 19-238); experiment: ELISA, coated human PD-L1
T1 construct: coated on the ELISA plate; also called human PDL1 antigen

hCD28 (Octet R8 analyte) = hCD28 (Octet R8 analyte) (human, UniProt P10747 19-152, limits assumed); experiment: BLI Octet R8, Protein A probe
[2] = biological target: T2, hCTLA-4 (Octet R8 analyte) (human, UniProt P16410 36-161, limits assumed); experiment: BLI Octet R8, Protein A probe
T2 sequence (looked up): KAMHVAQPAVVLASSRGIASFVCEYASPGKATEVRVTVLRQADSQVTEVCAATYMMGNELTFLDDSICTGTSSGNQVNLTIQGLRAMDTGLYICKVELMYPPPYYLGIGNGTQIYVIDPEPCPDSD

[3] = biological target: hPD-L1 (Octet R8 analyte) (human, UniProt Q9NZQ7 19-238, limits assumed); experiment: BLI Octet R8, Protein A probe
Sequence of hPD-L1 (Octet R8 analyte) (Q9NZQ7 19-238 limits assumed): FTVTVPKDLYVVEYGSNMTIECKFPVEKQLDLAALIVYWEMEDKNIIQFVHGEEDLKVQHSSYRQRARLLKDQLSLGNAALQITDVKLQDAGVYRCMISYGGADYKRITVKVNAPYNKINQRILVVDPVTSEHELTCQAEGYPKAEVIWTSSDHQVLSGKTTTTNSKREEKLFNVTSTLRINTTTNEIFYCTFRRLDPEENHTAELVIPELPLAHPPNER

[4] = biological target: T3, human CTLA4 protein (Acro, CT4-H52H9) (human, UniProt P16410 36-161); experiment: ELISA, coated human CTLA4
T3 construct: coated on the ELISA plate; also called human CTLA4 antigen
T3 sequence (looked up): T2 sequence (looked up)

[5] = biological target: PD-L1 on TCR activator PD-L1-CHO cells (BPS bioscience) (UniProt Q9NZQ7 19-290, limits assumed); experiment: cell-based or functional assay
Sequence of PD-L1 on TCR activator PD-L1-CHO cells (BPS bioscience) (Q9NZQ7 19-290 limits assumed): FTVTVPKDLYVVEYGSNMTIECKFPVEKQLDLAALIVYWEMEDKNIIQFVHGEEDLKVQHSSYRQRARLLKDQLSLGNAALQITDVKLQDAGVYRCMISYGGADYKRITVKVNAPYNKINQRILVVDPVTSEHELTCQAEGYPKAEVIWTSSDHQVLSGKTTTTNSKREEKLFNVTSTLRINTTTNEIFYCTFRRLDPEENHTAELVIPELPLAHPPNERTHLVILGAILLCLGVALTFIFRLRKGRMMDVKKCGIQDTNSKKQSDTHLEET

[6] = biological target: T4, human CD28 protein (Acro, CD8-H525a) (human, UniProt P10747 19-152); experiment: ELISA, coated human CD28
T4 construct: coated on the ELISA plate; also called human CD28 antigen
T4 sequence (P10747 19-152 limits assumed): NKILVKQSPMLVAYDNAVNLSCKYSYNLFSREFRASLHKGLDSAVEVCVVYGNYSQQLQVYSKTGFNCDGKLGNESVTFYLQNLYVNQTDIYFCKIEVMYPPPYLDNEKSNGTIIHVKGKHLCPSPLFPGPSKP

T1 sequence (Q9NZQ7 19-238 limits assumed): as the sequence (Q9NZQ7 19-238 limits assumed) above
Sequence of hCD28 (Octet R8 analyte) (P10747 19-152 limits assumed): as the sequence (P10747 19-152 limits assumed) above

EC50 [1]: 0.0767 nM
binding result (hCD28 (Octet R8 analyte)): no binding (tested: 50nM)
binding result [2]: no binding (tested: 50nM)
Kd [3]: 0.581 nM
binding result [4]: no binding
Jurkat-NFAT-Luc/CHO-PDL1 EC50 [5]: 0.09 nM
Top induction relative to 10nM sugemalimab [5]: 100%
binding result [6]: no binding
B1: antibody Abs-16 (sugemalimab) (antibody, human IgG4 S228P, lambda, V domains shown)
VH: EVQLLESGGGLVQPGGSLRLSCAASGFTFSSYAMSWVRQAPGKGLEWVSGISGSGGFTYYADSVKGRFTISRDNSKNTLYLQMNSLRAEDTAVYYCAKPPRGYNYGPFDYWGQGTLVTVSS
VL: SYVLTQPPSVSVAPGQTARITCGGNNIGSKSVHWYQQKPGQAPVLVVYDDSDRPSGIPERFSGSNSGNTATLTISRVEAGDEADYYCQVWDSSSDHVVFGGGTKLTVLG
notes: anti-PD-L1 control antibody; also called Sugemalimab (CS1001)
